For three molecules, Kd, koff and kon results are on record in patent US20220119534A1 (DRAGONFLY THERAPEUTICS, published 2022).

“And” between values parts separate entries of the source, which are not always exact repeats. Identical values can stand only once.

Experiment [1] addresses T1, Human CLEC12A-His (human, UniProt Q5QGZ9 65-265).
T1 construct: Recombinant soluble protein made in house (Dragonfly Tx); The hCLEC12A spot of the HuProt array is written under this molecule as well; also called hCLEC12A-His; hCLEC12A; not shown: His tag
T1 sequence: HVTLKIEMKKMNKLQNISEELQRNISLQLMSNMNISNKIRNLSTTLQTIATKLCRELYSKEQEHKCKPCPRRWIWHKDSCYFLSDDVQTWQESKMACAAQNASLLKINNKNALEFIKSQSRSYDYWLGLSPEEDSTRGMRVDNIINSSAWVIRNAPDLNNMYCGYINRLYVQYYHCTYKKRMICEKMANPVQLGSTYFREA
The experiment is described as follows: SPR Biacore 8K 37 C; TriNKET captured on anti-hFc chip, hCLEC12A-His as analyte; 1:1 fit; after 4 wks 2-8 C in CST pH 7.0, n=2. (In general: Surface plasmon resonance follows binding to a sensor surface in real time, without labels.)

Experiment [2] deals with T2, Human CD16a V158 (FcγRIIIa V158) (human, UniProt P08637 17-208, biotinylated (site not stated)).
T2 construct: V158 is the allele name in mature numbering; also called hCD16aV; hCD16a V158
T2 sequence (P08637 17-208 F176V limits assumed): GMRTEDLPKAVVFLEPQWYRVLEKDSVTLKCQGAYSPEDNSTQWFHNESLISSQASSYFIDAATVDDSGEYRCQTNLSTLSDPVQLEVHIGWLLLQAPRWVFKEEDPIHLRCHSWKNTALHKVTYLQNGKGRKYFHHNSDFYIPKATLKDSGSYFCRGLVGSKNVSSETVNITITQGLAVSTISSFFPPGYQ
The experiment is described as follows: SPR; biotinylated CD16a V158 captured on SA chip, TriNKET as analyte; 1:1 kinetic fit; control, n=3.

A further experiment addresses T3, mFc-hNKG2D (human, UniProt P26718 73-216).
T3 construct: extracellular domain; Made in house (Dragonfly Tx); the order of tag and ECD follows the name mFc-hNKG2D; also called mFc-tagged human NKG2D; not shown: mouse Fc tag
T3 sequence (looked up): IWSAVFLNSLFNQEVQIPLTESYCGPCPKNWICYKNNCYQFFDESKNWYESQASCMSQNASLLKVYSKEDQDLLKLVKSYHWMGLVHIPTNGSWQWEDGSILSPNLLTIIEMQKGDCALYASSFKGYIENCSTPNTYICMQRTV
The experiment is described as follows: SPR Biacore 8K 37 C; mFc-hNKG2D captured on anti-mFc chip, TriNKET as analyte; 1:1 kinetic fit; control sample.

Experiment [3] has as its target T4, Human CLEC12A-His (human, UniProt Q5QGZ9 65-265).
T4 construct: Recombinant soluble protein made in house; also called hCLEC12A-His; hCLEC12A; not shown: His tag
T4 sequence: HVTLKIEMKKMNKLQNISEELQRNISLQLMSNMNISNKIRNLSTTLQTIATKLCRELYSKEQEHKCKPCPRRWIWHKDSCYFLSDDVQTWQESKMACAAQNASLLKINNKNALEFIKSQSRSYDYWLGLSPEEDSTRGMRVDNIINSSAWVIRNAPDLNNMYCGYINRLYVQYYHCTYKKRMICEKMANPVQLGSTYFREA
The experiment is described as follows: SPR, 37 C, AB0192 captured, hCLEC12A-His analyte; average of 3 replicates.

A further experiment deals with T5, Human CD16b (human, UniProt O75015 17-200, limits assumed, biotinylated).
T5 construct: Bought recombinant receptor; also called hFcγRIIIb
T5 sequence (O75015 17-200 limits assumed): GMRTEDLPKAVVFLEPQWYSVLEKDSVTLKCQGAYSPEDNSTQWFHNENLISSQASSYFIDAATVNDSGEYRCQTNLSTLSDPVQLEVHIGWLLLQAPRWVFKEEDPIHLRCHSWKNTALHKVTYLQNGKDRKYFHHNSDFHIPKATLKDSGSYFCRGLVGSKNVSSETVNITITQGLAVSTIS
The experiment is described as follows: SPR, steady state fit.

Another experiment deals with T6, recombinant human FcRn (human, UniProt P55899 24-297; P61769 21-119).
T6 construct: also called hFcRn
T6 sequence (P55899 24-297 limits assumed, chain 1 of 2): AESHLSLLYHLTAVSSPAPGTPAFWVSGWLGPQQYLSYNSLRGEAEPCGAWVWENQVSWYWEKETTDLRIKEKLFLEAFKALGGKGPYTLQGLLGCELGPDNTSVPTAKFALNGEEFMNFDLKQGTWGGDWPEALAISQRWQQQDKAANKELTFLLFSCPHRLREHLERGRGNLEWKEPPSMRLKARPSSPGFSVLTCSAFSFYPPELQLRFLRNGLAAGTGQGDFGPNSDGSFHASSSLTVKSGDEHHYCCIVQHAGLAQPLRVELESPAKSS
T6 sequence (P61769 21-119 limits assumed, chain 2 of 2): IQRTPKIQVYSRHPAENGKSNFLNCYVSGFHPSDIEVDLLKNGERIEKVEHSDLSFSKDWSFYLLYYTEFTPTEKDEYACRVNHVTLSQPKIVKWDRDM
The experiment is described as follows: SPR 25C, pH 6.0, steady state; pH 6.0; third replicate.

Protocol for mFc-hNKG2D: Association was monitored for 60 seconds and dissociation was monitored for 60 seconds. Surfaces were regenerated between cycles with three pulses of 10 mM glycine-HCl, pH 1.7 injected for 20 seconds at 100 μL/min. HBS-EP+ (1×) buffer was used throughout the experiment. Data were analyzed using Biacore 8K Insight evaluation software (GE Healthcare).

B1: F3'-1602 TriNKET (bispecific antibody, human IgG1, kappa)
chain: QLQLQESGPGLVKPSETLSLTCTVSGFSLTNYGLHWIRQPPGKCLEWIGVIWSGGKTDYNPSLKSRVTISKDTSKNQFSLKLSSVQAADTAVYYCAKYDYDDSLDYWGQGTLVTVSSGGGGSGGGGSGGGGSGGGGSDIQMTQSPSSLSASVGDRVTITCHASQNINFWLSWYQQKPGKAPKLLIYEASNLHTGVPSRFSGSGSGTRFTLTISSLQPEDIATYYCQQSHSYPLTFGCGTKLEIKGSDKTHTCPPCPAPELLGGPSVFLFPPKPKDTLMISRTPEVTCVVVDVSHEDPEVKFNWYVDGVEVHNAKTKPREEQYNSTYRVVSVLTVLHQDWLNGKEYKCKVSNKALPAPIEKTISKAKGQPREPRVYTLPPCRDELTKNQVSLTCLVKGFYPSDIAVEWESNGQPENNYKTTPPVLVSDGSFTLYSKLTVDKSRWQQGNVFSCSVMHEALHNHYTQKSLSLSPG
heavy: EVQLVESGGGLVKPGGSLRLSCAASGFTFSSYSMNWVRQAPGKGLEWVSSISSSSSYIYYADSVKGRFTISRDNAKNSLYLQMNSLRAEDTAVYYCARGAPIGAAAGWFDPWGQGTLVTVSSASTKGPSVFPLAPSSKSTSGGTAALGCLVKDYFPEPVTVSWNSGALTSGVHTFPAVLQSSGLYSLSSVVTVPSSSLGTQTYICNVNHKPSNTKVDKKVEPKSCDKTHTCPPCPAPELLGGPSVFLFPPKPKDTLMISRTPEVTCVVVDVSHEDPEVKFNWYVDGVEVHNAKTKPREEQYNSTYRVVSVLTVLHQDWLNGKEYKCKVSNKALPAPIEKTISKAKGQPREPQVCTLPPSRDELTENQVSLTCLVKGFYPSDIAVEWESNGQPENNYKTTPPVLDSDGSFFLYSWLTVDKSRWQQGNVFSCSVMHEALHNHYTQKSLSLSPG
light: DIQMTQSPSSVSASVGDRVTITCRASQGISSWLAWYQQKPGKAPKLLIYAASSLQSGVPSRFSGSGSGTDFTLTISSLQPEDFATYYCQQGVSFPRTFGGGTKVEIKRTVAAPSVFIFPPSDEQLKSGTASVVCLLNNFYPREAKVQWKVDNALQSGNSQESVTEQDSKDSTYSLSSTLTLSKADYEKHKVYACEVTHQGLSSPVTKSFNRGEC
notes: Trispecific F3' format: CLEC12A scFv-Fc paired with NKG2D Fab-Fc; Stressed and control samples of the stability studies are the same molecule; also called AB0237
In the experiment with Human CLEC12A-His [1], B1 registered a Kd of 0.00091 µM, a dissociation rate constant (koff) of 0.000708 s⁻¹ and a kon of 776000 M⁻¹ s⁻¹. For the same molecule, in experiment [2], the affinity, expressed as Kd, was 0.212 µM; the koff was found to be 0.024 s⁻¹; the kon came to 113000 M⁻¹ s⁻¹. In addition, in the experiment with mFc-hNKG2D, the Kd is 0.76 µM, the off-rate (koff) stood at 0.129 s⁻¹ and the association rate constant (kon) was 170000 M⁻¹ s⁻¹.

B2: AB0192 TriNKET (other)
chain: EVQLVESGGGVVQPGGSLRLSCAASGFTFNAFGMHWVRQAPGKCLEWVAFISSGSTSIYYANTVKGRFTISRDNSKNTLYLQMNSLRAEDTAVYYCARDGYPTGGAMDYWGQGTSVTVSSGGGGSGGGGSGGGGSGGGGSDIQMTQSPSSLSASVGDRVTITCKASQDIYNYLSWFQQKPGKAPKPLIYRANILVSGVPSRFSGSGSGQDYTFTISSLQPEDIATYYCLQFDAFPFTFGCGTKLEIKGSDKTHTCPPCPAPELLGGPSVFLFPPKPKDTLMISRTPEVTCVVVDVSHEDPEVKFNWYVDGVEVHNAKTKPREEQYNSTYRVVSVLTVLHQDWLNGKEYKCKVSNKALPAPIEKTISKAKGQPREPRVYTLPPCRDELTKNQVSLTCLVKGFYPSDIAVEWESNGQPENNYKTTPPVLVSDGSFTLYSKLTVDKSRWQQGNVFSCSVMHEALHNHYTQKSLSLSPG
heavy: EVQLVESGGGLVKPGGSLRLSCAASGFTFSSYSMNWVRQAPGKGLEWVSSISSSSSYIYYADSVKGRFTISRDNAKNSLYLQMNSLRAEDTAVYYCARGAPIGAAAGWFDPWGQGTLVTVSSASTKGPSVFPLAPSSKSTSGGTAALGCLVKDYFPEPVTVSWNSGALTSGVHTFPAVLQSSGLYSLSSVVTVPSSSLGTQTYICNVNHKPSNTKVDKKVEPKSCDKTHTCPPCPAPELLGGPSVFLFPPKPKDTLMISRTPEVTCVVVDVSHEDPEVKFNWYVDGVEVHNAKTKPREEQYNSTYRVVSVLTVLHQDWLNGKEYKCKVSNKALPAPIEKTISKAKGQPREPQVCTLPPSRDELTENQVSLTCLVKGFYPSDIAVEWESNGQPENNYKTTPPVLDSDGSFFLYSWLTVDKSRWQQGNVFSCSVMHEALHNHYTQKSLSLSPG
light: DIQMTQSPSSVSASVGDRVTITCRASQGISSWLAWYQQKPGKAPKLLIYAASSLQSGVPSRFSGSGSGTDFTLTISSLQPEDFATYYCQQGVSFPRTFGGGTKVEIKRTVAAPSVFIFPPSDEQLKSGTASVVCLLNNFYPREAKVQWKVDNALQSGNSQESVTEQDSKDSTYSLSSTLTLSKADYEKHKVYACEVTHQGLSSPVTKSFNRGEC
notes: the condition stands under assay; also called AB0192 Lot AB0192-005
For B2, in the experiment with Human CLEC12A-His [3], binding was put at a Kd of 0.00181 µM, the off-rate constant (koff) worked out at 0.0014 s⁻¹ and the kon was 776000 M⁻¹ s⁻¹. Besides, the Kd with Human CD16b is 6.8 µM and 6 µM and 5.3 µM.

B3: F3'-1602 TriNKET (other)
chain: QLQLQESGPGLVKPSETLSLTCTVSGFSLTNYGLHWIRQPPGKCLEWIGVIWSGGKTDYNPSLKSRVTISKDTSKNQFSLKLSSVQAADTAVYYCAKYDYDDSLDYWGQGTLVTVSSGGGGSGGGGSGGGGSGGGGSDIQMTQSPSSLSASVGDRVTITCHASQNINFWLSWYQQKPGKAPKLLIYEASNLHTGVPSRFSGSGSGTRFTLTISSLQPEDIATYYCQQSHSYPLTFGCGTKLEIKGSDKTHTCPPCPAPELLGGPSVFLFPPKPKDTLMISRTPEVTCVVVDVSHEDPEVKFNWYVDGVEVHNAKTKPREEQYNSTYRVVSVLTVLHQDWLNGKEYKCKVSNKALPAPIEKTISKAKGQPREPRVYTLPPCRDELTKNQVSLTCLVKGFYPSDIAVEWESNGQPENNYKTTPPVLVSDGSFTLYSKLTVDKSRWQQGNVFSCSVMHEALHNHYTQKSLSLSPG
heavy: EVQLVESGGGLVKPGGSLRLSCAASGFTFSSYSMNWVRQAPGKGLEWVSSISSSSSYIYYADSVKGRFTISRDNAKNSLYLQMNSLRAEDTAVYYCARGAPIGAAAGWFDPWGQGTLVTVSSASTKGPSVFPLAPSSKSTSGGTAALGCLVKDYFPEPVTVSWNSGALTSGVHTFPAVLQSSGLYSLSSVVTVPSSSLGTQTYICNVNHKPSNTKVDKKVEPKSCDKTHTCPPCPAPELLGGPSVFLFPPKPKDTLMISRTPEVTCVVVDVSHEDPEVKFNWYVDGVEVHNAKTKPREEQYNSTYRVVSVLTVLHQDWLNGKEYKCKVSNKALPAPIEKTISKAKGQPREPQVCTLPPSRDELTENQVSLTCLVKGFYPSDIAVEWESNGQPENNYKTTPPVLDSDGSFFLYSWLTVDKSRWQQGNVFSCSVMHEALHNHYTQKSLSLSPG
light: DIQMTQSPSSVSASVGDRVTITCRASQGISSWLAWYQQKPGKAPKLLIYAASSLQSGVPSRFSGSGSGTDFTLTISSLQPEDFATYYCQQGVSFPRTFGGGTKVEIKRTVAAPSVFIFPPSDEQLKSGTASVVCLLNNFYPREAKVQWKVDNALQSGNSQESVTEQDSKDSTYSLSSTLTLSKADYEKHKVYACEVTHQGLSSPVTKSFNRGEC
notes: CLEC12A scFv-Fc, NKG2D A49MI Fab-Fc, human IgG1 Fc; also called AB0237
For the molecule B3, in the experiment with recombinant human FcRn, the Kd was found to be 1.5 µM.

For orientation: Kd means the concentration at which binding is half-saturated. In general, koff refers to the rate constant with which the complex falls apart. High values mean fast dissociation, low ones slow dissociation. One may read the kon as the rate constant with which the complex forms. Read a high kon as fast association.
